A word on the Kd: it is the free concentration of one partner at which half of the binding sites on the other are occupied at equilibrium, for simple one-to-one binding. Low values mean a tighter complex, high ones a looser complex.

Holding throughout (assay): SPR
A general note: SPR reads the build-up and loss of mass on a sensor chip optically.

Assay [1] deals with Human IgG1 Fc, afucosylated, mixed N-glycans (G0, G1 and G2) (human).
For assay [2], the target named is Human IgG1 Fc, fucosylated, mixed N-glycans (predominantly G0F/G1F/G2F) (human).
The target in assay [3] is Human IgG1 Fc, G0 N-glycan (agalactosylated, afucosylated) (human).
For assay [4], the target named is Human IgG1 Fc, G0F N-glycan (agalactosylated, core-fucosylated) (human).
The target in assay [5] is Human IgG1 Fc, G2F N-glycan (digalactosylated, core-fucosylated) (human).

For the substance “CD16a, wild type, complex-type glycoform (receptor)”, the Kd worked out at 38 nM in assay [1] and 245 nM in assay [2].
For “CD16a, wild type, Man9 glycoform (receptor)” the same measures were 4 nM and 64 nM.
Regarding “CD16a (Fc γ receptor IIIa), wild type, Man5 glycoform”, the equilibrium dissociation constant (Kd) in assay [3] amounted to 2.4 nM; in assay [4] it was 18 nM; in assay [5] it was 9.9 nM; in assay [1] it was 2.5 nM; in assay [2], 57 nM.
Consider “CD16a N38Q/N45Q/N74Q/N169Q, Man5 glycoform (receptor)”, for which the Kd in assay [4] worked out at 360 nM.
In the case of “CD16a N38Q/N74Q/N169Q following treatment with Endoglycosidase F1 (N-glycans truncated to a single (1)GlcNAc) (receptor)”, the Kd in assay [3] came out at 1.3 nM; in assay [4] it was 2.9 nM; in assay [5], 1.6 nM.
Turning to “CD16a, wild type, following treatment with Endoglycosidase F1 (N-glycans truncated to a single (1)GlcNAc) (receptor)”, the figures for the Kd in assay [3], in assay [4] and in assay [5] were 1.7 nM, 3.7 nM and 2 nM, respectively.

(Values after paper PMC6415948.)
